Results on one substance are retold here after paper PMC5476585.

Some results are limits rather than exact numbers.

The target in this test is 25-nucleosome array (human).

For the substance “Fpr4 FKBP (280-392) (from UniProt Q06205 280-392) (domain or fragment)”, the magnesium-dependent self-association of 25-nucleosome arrays (0.25, 0.5 and 1 mM MgCl2), chromatin in the pellet fraction after centrifugation is more than 90%.
